The results in this text go back to article PMC4755762.

Experiment [1] deals with CD11b_(342-424c)/CD18 chimera on CHO cells (human) (UniProt P11215). Kind of experiment: flow cytometry on cells. (Flow cytometry measures light scatter and fluorescence of single cells or particles in a stream.)
The target in experiment [2] is CD11b_(614-682c)/CD18 chimera on CHO cells (human) (UniProt P11215). Kind of experiment: flow cytometry on cells.
Experiment [3] addresses CR3 chimera with residues 33 to 115 of CD11b replaced by the corresponding segment of CD11c, with CD18, on CHO cells (human) (UniProt P11215). Briefly: flow cytometry on cells.
The target of experiment [4] is CR3 chimera with residues 686 to 1152 of CD11b replaced by the corresponding segment of CD11c, with CD18, on CHO cells (human) (UniProt P11215). Briefly: flow cytometry on cells.
For experiment [5], the target named is CD11c_(614-682b)-YFP/CD18 chimera on CHO cells (human) (UniProt P11215). Briefly: flow cytometry on cells; 2x10^5 CHO cells expressing YFP-fused integrins with different concentrations of CyaA-biotin; streptavidin-PE; mean fluorescence intensities against CyaA concentration.

On to “adenylate cyclase toxin-hemolysin (CyaA) of Bordetella pertussis, intact (from UniProt P0DKX7 1-1706) (natural protein)”, for which the CyaA binding, percent of binding to intact CD11b/CD18 in experiment [1] came out at 61%; in experiment [3] it was 72%; in experiment [4], 89%. The substance further returned a fold decrease of CyaA binding against intact CR3 in experiment [2] of 10 fold. For the same substance, the fold higher CyaA binding than CD11c-YFP/CD18 in experiment [5] turned out to be 24 fold. The substance further registered a fold lower CyaA binding than CD11b-YFP/CD18 in experiment [5] of 1.7 fold.
